Source: article PMC9352689 (Nature Communications, 2022)

Tests used:
[1] = target: SARS-CoV-2 soluble S2, his-tagged (SARS-CoV-2, ancestral (Wuhan-Hu-1), UniProt P0DTC2); experiment: ELISA; COVA MAbs on SARS-CoV-2 S and on soluble S2 (Fig. S5A); format not told; conditions: both partners purified
[2] = target: MERS-CoV S, full-length, on the cell surface (MERS-CoV, strain , UniProt K9N5Q8); experiment: flow cytometry on cells; conditions: one partner purified
[3] = target: HCoV-NL63 S, full-length, on the cell surface (HCoV-NL63, strain , UniProt Q6Q1S2); experiment: flow cytometry on cells; conditions: one partner purified
[4] = target: SARS-CoV S, full-length, on the cell surface (SARS-CoV, strain , UniProt P59594); experiment: flow cytometry on cells; conditions: one partner purified
[5] = target: HCoV-HKU1 S, full-length, on the cell surface (HCoV-HKU1, isolate  (entry: …, UniProt Q5MQD0)); experiment: flow cytometry on cells; conditions: one partner purified
[6] = target: T1, SARS-CoV-2 S, full-length wild type, expressed on the cell surface (SARS-CoV-2, labelled B.1 in Fig. S6A, UniProt P0DTC2); experiment: flow cytometry on cells; conditions: one partner purified
T1 construct: source: HEK293T, transfected, on the cell surface

[7] = target: HCoV-OC43 S, full-length, on the cell surface (HCoV-OC43, strain , UniProt P36334); experiment: flow cytometry on cells; conditions: one partner purified
[8] = target: bat CoV SHC014 S, full-length, on the cell surface (Bat SARS-like coronavirus RsSHC014, UniProt U5WLK5); experiment: flow cytometry on cells; conditions: one partner purified
[9] = target: HCoV-229E S, full-length, on the cell surface (HCoV-229E, strain , UniProt P15423); experiment: flow cytometry on cells; conditions: one partner purified

Binder | binding result [1] | binding result [2] | binding result [3] | binding result [4] | binding result [5] | binding result [6] | binding result [7] | binding result [8] | binding result [9]
COVA1-07 (antibody, V domains shown, copies: 2 + 2) VH: QVQLVESGAEVKKPGSSVKVSCKASGGTLSSYAITWVRQAPGQGLEWVGGIIPIFGTANYAQKFQGRVTITADESTSTAYMELSSLRSEDTAVYYCARVGAYDSSGYSNDYWGQGTLVTVSS VL: DIQLTQSPATLSLSPGERATLSCRASQSVSSYLAWYQQKPGQAPRLLIYDASNRATGIPARFSGSGSGTDFTLTISSLEPEDFAVYYCQQRSNWPPRVTFGGGTKVEIK | binds | no binding (tested: 50 μg/mL) | no binding (tested: 50 μg/mL) | binds | no binding (tested: 50 μg/mL) | binds | no binding (tested: 50 μg/mL) | binds | no binding (tested: 50 μg/mL)
COVA2-14 (antibody, V domains shown, copies: 2 + 2) VH: QVQLVQSGAEVKKPGSSVKVSCKASGGTFSSYAIIWVRQAPGQGLEWMGGIIPIFGTANYAQKFQGRVTITTDESTSTAYMELSSLRSEDTAVYYCARVRYYDSSGYYEDYWGQGTLVTVSS VL: EIVLTQSPATLSLSPGERATLSCRASQSVSSYLAWYQQEPGQAPRLLIYDASNRATGIPARFSGSGSGTDFTLTISSLEPEDFAVYYCQQRSNWPPMYTFGQGTKVEIK | binds | no binding (tested: 50 μg/mL) | no binding (tested: 50 μg/mL) | binds | no binding (tested: 50 μg/mL) | binds | no binding (tested: 50 μg/mL) | binds | no binding (tested: 50 μg/mL)
COVA2-18 (antibody, V domains shown, copies: 2 + 2) VH: EVQLVQSGAEVKKPGSSVKVSCKASGGTFSSYAISWVRQAPGQGLEWMGGIIPIFGTTNYAQKFQGRVTITTDESTSTAYMELSSLRSEDTAVYYCARVYSYDSSGYYLEYWGQGTRVTVSS VL: EIVLTQSPATLSLSPGERATLSCRASQSVSSYLAWYQQKPGQAPRLLIYDASNRATGIPARFSGSGSGTDFTLTISSLEPEDFAVYYCQQRSNWPPSITFGQGTRLEIK | binds | no binding (tested: 50 μg/mL) | no binding (tested: 50 μg/mL) | binds | no binding (tested: 50 μg/mL) | binds | no binding (tested: 50 μg/mL) | binds | no binding (tested: 50 μg/mL)
